Laboratory results reported in patent publication US20240117402A1, “METHODS FOR (POLY) PEPTIDE TANDEM LIGATION AND CYCLIZATION” (Nanyang Technological University, priority 2021, published 2024).
Where no end group is shown, it is not given here.

T1: Peptide 7 (SEQ ID NO:11), Ac-KKLAVINGF
T1 chain: KKLAVINGF

T2: Peptide 21e (SEQ ID NO:19), GISTKSIPPISYRDSL
T2 chain: GISTKSIPPISYRDSL

T3: Peptide 1 (SEQ ID NO:7), Ac-KKLAVINHV
T3 chain: KKLAVINHV

T4: Peptide 5 (SEQ ID NO:10), GFGGIKA
T4 chain: GFGGIKA

T5: Peptide 21j (SEQ ID NO:24), GISTKSIPPISYRNGL
T5 chain: GISTKSIPPISYRNGL


Columns and labels:
butelase-1 = assay: Butelase-1-catalyzed peptide cyclization (substrate screen, pH scan, kinetics); format: biochemical; details: for substrate preference among P1-Asp peptides: 25 nM butelase-1, 5 μM peptide, pH 4.5, 25° C., 60 min
Experimental: (§1) FIG. 9. Screening of P1′-Asp peptides for cyclization by A) VyPAL2, B) butelase-1 and C) OaAEP1b. Quantitative summary of reaction yields of the reaction mixtures. For each reaction, 25 nM of the enzyme and 5 μM of the peptide substrate (21a-21i) were mixed and reacted at pH 4.5, 25° C. for 60 min. The positive control peptide 21j was performed at the same conditions except at pH 7.4. Average yields and SDs were calculated from experiments performed in triplicate. The amino acid sequence of the peptides used are set forth in SEQ ID Nos. 15-24.
(§2) FIG. 10. Ligation activity of three different ligases under different pH and substrate. Cyclization activity of A) VyPAL2, B) Butelase-1 or C) OaAEP1b towards substrate 21e-DSL and 21j-NGL; Fold difference was calculated using the cyclization rate of 21j-NGL divided by that of 21e-DSL. All the results were the average reaction rate at different pH in triplicate experiments based on MALDI-TOF analysis. Light grey text in the “Fold difference” axis marks to the maximum fold difference.
(§3) FIG. 11. Enzymatic activity of three different ligases on the cyclization reaction of P1-Asp peptide 21e-DSL or 21a-DGL and P1-Asn-peptide 21j-NGL. A) Scheme of PAL-mediated P1-Asp peptide cyclization; B) Enzymatic kinetics of VyPAL2 in cyclizing 21e-DSL at pH 4.5; C) Enzymatic kinetics of VyPAL2 in cyclizing 21e-DSL at pH 7.0; D) Enzymatic kinetics of OaAEP1b in cyclizing 21a-DGL at pH 5.5; E) Enzymatic kinetics of Butelase-1 in cyclizing 21e-DSL at pH 4.5. F) Scheme of PAL-mediated cyclization of peptide 21j-NGL; G). Enzymatic kinetics of butelase-1 in cyclizing […] at pH 4.5; H)
(§4) Enzymatic kinetics of VyPAL2 in cyclizing 21j-NSL at pH 4.5; I) Enzymatic kinetics of butelase-1 in cyclizing 21j-NSL at pH 7.4; J) Enzymatic kinetics of OaAEP1b in cyclizing 21j-NSL at pH 7.0. Sequences of peptides used are set forth in SEQ ID Nos. 15, 19, 24.
(§5) PALs recognize a tripeptide motif Asx-P1′-P2′ in the acyl donor substrate for their catalyzed ligation reactions. Because the formation of the acyl-enzyme thioester intermediate is the rate-limiting step, the leaving group P1′-P2′ also plays an important role in determining the catalytic kinetics of a particular 40 PAL-mediated reaction. Previous studies have determined Leu as a preferred P2′ residue. To identify the most favorable P1′ residues for PAL-catalyzed Asp-ligation, a panel of peptides (peptide 21a-21j) with C-terminal DXL and N-terminal GI motifs was synthesized and cyclization reactions performed. Peptide 21j with a C-terminal NGL, a P1-Asn peptide favored by VyPAL2, was used for comparison with the P1-Asp peptides 21a-21i. […] Meanwhile, the P1′ substrate specificities of the two other ligases - Butelase-1 and OaAEP1b - were also evaluated by using the same substrates 21a-21j.
A pH scan experiment with the other two ligases: butelase-1 and OaAEP1 b, for their cyclase activity on 21e and 21j was also conducted. […] In fact, the difference in reaction efficiency between 21j and 21e was about 950 times at pH 7.4 (FIG. 10). […] This makes VyPAL2 a more efficient ligase than butelase-1 for Asp-mediated protein modification.

VyPAL2 = assay: VyPAL2-catalyzed peptide cyclization (substrate screen, pH scan, kinetics); format: biochemical, Viola yedoensis
Experimental: as §1, §2, §3, §4, §5
scanning experiment using the two peptides 21e and 21j was performed. Cyclization reactions were conducted by mixing 5 μM of peptide 21e or 50 μM of 21j with 25 nM of VyPAL2 over a pH range of 4.0 to 7.4. Results confirmed that the optimum pH for the cyclization of the P1-Asn peptide 21j was 6.5-7.4. But for the P1-Asp peptide 21e (which has the C-terminal DSL tripeptide), the optimum pH was 4.0-4.5.
It is worth noting that, at pH 7.4, VyPAL2 processed peptide 21j for cyclization at a rate that is >1000 folds faster than processing peptide 21e (FIG. 10). This enormous difference of reactivity essentially established the orthogonality for ligation at Asn in the presence of aspartyl bonds.

[1] = molecular target: T1, Peptide 7 (SEQ ID NO:11), Ac-KKLAVINGF
[2] = molecular target: T2, Peptide 21e (SEQ ID NO:19), …
[3] = molecular target: T3, Peptide 1 (SEQ ID NO:7), Ac-KKLAVINHV
[4] = molecular target: T4, Peptide 5 (SEQ ID NO:10), GFGGIKA
[5] = molecular target: T5, Peptide 21j (SEQ ID NO:24), …
[6] = Butelase-1, cyclization, pH 4.5

| Molecule | substrate preference among P1-Asp peptides (butelase-1) | Km, intermolecular ligation of peptide 7 (varied) with nucleophile peptide 2 [1] | kcat, intermolecular ligation of peptide 7 (varied) with nucleophile peptide 2 [1] | kcat/Km, intermolecular ligation of peptide 7 (varied) with nucleophile peptide 2 [1] | Km, cyclization at pH 4.5 [2] | kcat, cyclization at pH 4.5 [2] | kcat/Km, cyclization at pH 4.5 [2] | Km, intermolecular ligation of peptide 1 (varied) with nucleophile peptide 2 [3] | kcat, intermolecular ligation of peptide 1 (varied) with nucleophile peptide 2 [3] | kcat/Km, intermolecular ligation of peptide 1 (varied) with nucleophile peptide 2 [3] | Km, intermolecular ligation of GF-peptide 5 (varied) with acyl substrate peptide 4 [4] | kcat, intermolecular ligation of GF-peptide 5 (varied) with acyl substrate peptide 4 [4] | kcat/Km, intermolecular ligation of GF-peptide 5 (varied) with acyl substrate peptide 4 [4] | Km, cyclization at pH 4.5 [5] | Km, cyclization at pH 7.4 [5] | kcat, cyclization at pH 4.5 [5] | kcat, cyclization at pH 7.4 [5] | kcat/Km, cyclization at pH 4.5 [5] | kcat/Km, cyclization at pH 7.4 [5] | further results |
| --- | --- | --- | --- | --- | --- | --- | --- | --- | --- | --- | --- | --- | --- | --- | --- | --- | --- | --- | --- | --- |
| GISTKSIPPISYRDSL (GISTKSIPPISYRDSL-NH2) [Peptide 21e] | – | – | – | – | – | – | – | – | – | – | – | – | – | – | – | – | – | – | – | cyclization rate among P1-Asp peptides 21a-21i (VyPAL2; 25 nM VyPAL2, 5 μM peptide, pH 4.5, 25° C., 60 min): fastest cyclization rate; optimum pH for cyclization (VyPAL2; 25 nM VyPAL2, pH range 4.0 to 7.4, 5 μM 21e or 50 μM 21j): 4.0-4.5; Km (VyPAL2; VyPAL2, cyclization, pH 4.5): 25.6 ± 2.6 µM; kcat (VyPAL2; VyPAL2, cyclization, pH 4.5): 0.28 ± 0.023 s⁻¹; Km (VyPAL2; VyPAL2, cyclization, pH 7.0): 42.3 ± 2.8 µM; kcat (VyPAL2; VyPAL2, cyclization, pH 7.0): 0.021 ± 0.001 s⁻¹; Vmax (VyPAL2; VyPAL2, cyclization, pH 7.4): 0.004 µM/min; Km (butelase-1; [6]): 16.6 ± 2.3 µM; kcat (butelase-1; [6]): 0.11 ± 0.01 s⁻¹ |
| butelase-1 (asparaginyl ligase, active form, SEQ ID NO:2) (protein) VEGTRWAVLVAGSKGYVNYRHQADVCHAYQILKKGGLKDENIIVFMYDDIAYNESNPHPGVIINHPYGSDVYKGVPKDYVGEDINPPNFYAVLLANKSALTGTGSGKVLDSGPNDHVFIYYTDHGGAGVLGMPSKPYIAASDLNDVLKKKHASGTYKSIVFYVESCESGSMFDGLLPEDHNIYVMGASDTGESSWVTYCPLQHPSPPPEYDVCVGDLFSVAWLEDCDVHNLQTETFQQQYEVVKNKTIVALIEDGTHVVQYGDVGLSKQTLFVYMGTDPAN | – | 175 µM | 0.46 S^-1 | 2650 M^-1S^-1 | 16.6 µM | 0.11 s⁻¹ | 7210 ± 489 M^-1s^-1 | 85 µM | 1.47 S^-1 | 17300 M^-1S^-1 | 365 µM | 1.55 S^-1 | 4260 M^-1S^-1 | 12.7 µM | 13.5 µM | 0.6 s⁻¹ | 9.4 s⁻¹ | 47100 ± 3740 M^-1s^-1 | 714200 ± 5390 M^-1s^-1 | – |
| VyPAL2 (asparaginyl ligase, active form, SEQ ID NO:1) (protein) DSIGTRWAVLIAGSKGYHNYRHQADVCHMYQILRKGGVKDENIIVFMYDDIAYNESNPFPGIIINKPGGENVYKGVPKDYTGEDINNVNFLAAILGNKSAIIGGSGKVLDTSPNDHIFIYYADHGAPGKIGMPSKPYLYADDLVDTLKQKAATGTYKSMVFYVEACNAGSMFEGLLPEGTNIYAMAASNSTEGSWITYCPGTPDFPPEFDVCLGDLWSITFLEDCDAHNLRTETVHQQFELVKKKIAYASTVSQYGDIPISKDSLSVYM | – | 155 µM | 1.1 S^-1 | 7220 M^-1S^-1 | 25.6 µM | 0.28 s⁻¹ | 10900 ± 195 M^-1s^-1 | 182 µM | 0.17 S^-1 | 932 M^-1S^-1 | 424 µM | 8.29 S^-1 | 19600 M^-1S^-1 | 28.4 µM | 25.8 µM | 1.9 s⁻¹ | 5.5 s⁻¹ | 67000 ± 3230 M^-1s^-1 | 214000 ± 3900 M^-1s^-1 | Km, cyclization at pH 7.0 [2]: 42.3 µM; Vmax, cyclization at pH 7.4 [2]: with Vmax of 0.004 and 5.633 µM/min respectively; kcat, cyclization at pH 7.0 [2]: 0.021 s⁻¹; kcat/Km, cyclization at pH 7.0 [2]: 752 M^-1s^-1; kcat/Km, cyclization at pH 7.0 (value in running text, differs from Table 2) [2]: kcat/Km as ˜847±123 M -1 5 1; Vmax, cyclization at pH 7.4 [5]: with Vmax of 0.004 and 5.633 µM/min respectively |

The next lines start with results.

| substrate preference among P1-Asp peptides (butelase-1) | Molecule | Km, intermolecular ligation of peptide 7 (varied) with nucleophile peptide 2 [1] | kcat, intermolecular ligation of peptide 7 (varied) with nucleophile peptide 2 [1] | kcat/Km, intermolecular ligation of peptide 7 (varied) with nucleophile peptide 2 [1] | Km, cyclization at pH 4.5 [2] | kcat, cyclization at pH 4.5 [2] | kcat/Km, cyclization at pH 4.5 [2] | Km, intermolecular ligation of peptide 1 (varied) with nucleophile peptide 2 [3] | kcat, intermolecular ligation of peptide 1 (varied) with nucleophile peptide 2 [3] | kcat/Km, intermolecular ligation of peptide 1 (varied) with nucleophile peptide 2 [3] | Km, intermolecular ligation of GF-peptide 5 (varied) with acyl substrate peptide 4 [4] | kcat, intermolecular ligation of GF-peptide 5 (varied) with acyl substrate peptide 4 [4] | kcat/Km, intermolecular ligation of GF-peptide 5 (varied) with acyl substrate peptide 4 [4] | Km, cyclization at pH 4.5 [5] | Km, cyclization at pH 7.4 [5] | kcat, cyclization at pH 4.5 [5] | kcat, cyclization at pH 7.4 [5] | kcat/Km, cyclization at pH 4.5 [5] | kcat/Km, cyclization at pH 7.4 [5] | further results |
| --- | --- | --- | --- | --- | --- | --- | --- | --- | --- | --- | --- | --- | --- | --- | --- | --- | --- | --- | --- | --- |
| slight preference | GISTKSIPPISYRDQL (GISTKSIPPISYRDQL-NH2) [Peptide 21h] | – | – | – | – | – | – | – | – | – | – | – | – | – | – | – | – | – | – | – |
| least favored P1-Asp substrate | GISTKSIPPISYRDRL (GISTKSIPPISYRDRL-NH2) [Peptide 21f] | – | – | – | – | – | – | – | – | – | – | – | – | – | – | – | – | – | – | – |
